Experiments:
AdipoR1 [1] = molecular target: T1, AdipoR1 (Mus musculus, UniProt Q91VH1); experiment: Calcium imaging in skeletal muscle (soleus, fura-2); type: cell-based, mice; design: from tissue; host or cells: soleus muscle of control (Adipor1 lox/lox) and muscle-R1KO mice; settings: adiponectin 30 μg/ml
T1 sequence (Q91VH1 1-375): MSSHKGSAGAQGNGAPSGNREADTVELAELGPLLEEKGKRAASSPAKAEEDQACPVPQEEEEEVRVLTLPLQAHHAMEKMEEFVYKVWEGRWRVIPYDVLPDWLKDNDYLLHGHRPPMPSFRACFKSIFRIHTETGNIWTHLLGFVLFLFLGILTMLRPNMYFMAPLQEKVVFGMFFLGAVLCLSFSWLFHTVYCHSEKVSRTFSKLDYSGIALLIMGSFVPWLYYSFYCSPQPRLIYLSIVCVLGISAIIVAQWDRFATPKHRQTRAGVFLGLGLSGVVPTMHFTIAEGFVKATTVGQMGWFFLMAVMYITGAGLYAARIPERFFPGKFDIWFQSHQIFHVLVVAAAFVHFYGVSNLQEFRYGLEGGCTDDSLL
Protocol: From 8-10 weeks-old mice, soleus muscles were dissected. Preparations were treated with 5 μM fura-2/AM in the presence of 0.1% Chremophore EL (Sigma) for 15 min. Fluorescence images were acquired using an inverted fluorescence microscopy (IX71, Olympus) equipped with a cooled charge-coupled device (CCD) camera (iXon, Andor) and a dry objective lens (10×, NA=0.3, Olympus) through a filter set consisting of a 327-353 nm and 369-391 nm excitation filter, a 409 nm dichroic mirror, and a 515-560 nm fluorescent filter. Ligands were supplied using the superfusing Ringer's solution (150 mM NaCl, 4 mM KCl, 2.0 mM CaCl2, 1.0 mM MgCl2, 30 mM D-glucose, 5 mM HEPES (pH 7.4)).

C2C12 myocytes [2] = experiment: Mitochondrial content assay in C2C12 myocytes (mtDNA copy number, MitoTracker Green); type: cell-based, mouse
Protocol: Mice used were from 8 to 10 week old at the time of the experiment. […] Induction of myogenic differentiation using C2C12 cells was carried out according to the method described in the following document (Nature Med. 8, 1288-1295 (2002)). By day 5, the cells had differentiated into multinucleated contracting myocytes. C2C12 myocytes were used after myogenic differentiation in all experiments.
The mouse C2C12 myoblasts were grown in 90% Dulbecco's modified high glucose Eagle's medium containing 10% (v/v) fetal bovine serum. When the cells reached 80% confluent, the myoblasts were induced to differentiate into myocytes by replacing the medium with a low serum differentiation medium (98% Dulbecco's modified high glucose Eagle's medium, 2.5% (v/v) horse serum). The medium was changed daily. The C2C12 cells were transfected by using Pofectamine 2000 (Invitrogen) and following the manufacturer's instructions.
Mitochondrial content assays were carried out as described in the following document (Cell Metab. 4, 75-87 (2006)), with slight modifications. Quantification of the mitochondrial content was conducted by using mtDNA and MitoTracker Green probe (Molecular Probes) according to the method as described in the following document (Obes. Res. 13, 574-581 (2005)). MitoTracker Green probe preferentially accumulates in mitochondria regardless of the mitochondrial membrane potential and provides an accurate assessment of mitochondrial mass. Cells were washed with PBS and after addition of 100 nM MitoTracker Green FM (Molecular Probes), incubated at 37° C. for 30 min. Cells were harvested by using trypsin/EDTA and resuspended in PBS. Fluorescence intensity was detected with excitation and emission wavelengths of 490 and 516 nm, respectively, and the values thus measured were corrected for total protein (mg/ml).

C2C12 myocytes [3] = experiment: NAD+/NADH measurements in C2C12 myocytes; type: cell-based, mouse; settings: C2C12 myocytes treated with adiponectin
Protocol: NAD^+ and NADH nucleotides were directly measured by the method described in the following document (Nature, 458, 1056-1060 (2009)). Whole skeletal muscles or two 10 cm dishes of C2C12 myocytes were homogenized in 200 μl of an acid extraction buffer to measure the NAD^+ concentration, or 200 μl of alkali extraction to obtain the NADH concentration. Next, homogenates were neutralized and the concentration of nucleotides was measured fluorimetrically after an enzymatic cycling reaction using 5 μl of a sample. Values for both nucleotides were detected within the linear range. NAD^+/NADH ratios were calculated by comparing the ratios obtained from each animal or from parallel cell dishes in each experiment.

AdipoR1 [4] = molecular target: T1, AdipoR1; experiment: Patch clamp test, whole-cell current of C2C12 myocytes; type: cell-based; design: endogenous in cells; host or cells: mouse C2C12 myocytes (differentiated from myoblasts); settings: holding potential -60 mV, adiponectin 30 μg/ml 30 sec
Protocol: Whole-cell currents were amplified with a patch-clamp amplifier (CEZ-2400; Nihon Kohden) and were digitized with a PowerLab digitizer (AD Instruments). Ringer's solution was used for the extracellular solution. The electrode solution contained 140 mM KCl, 10 mM HEPES, 5 mM EGTA-2K, and 10 mM D-glucose (pH 7.4). The data were low-pass filtered at 2 kHz and were sampled at 20 kHz. Ligands dissolved in Ringer's solution were applied at least twice with a self-made pressure-ejection system and via a two-barreled glass capillary.

[5] = C2C12 myocytes incubated with 30 μg/ml adiponectin

intracellular calcium ion concentration in soleus muscle (fura-2) (AdipoR1 [1]; control mice): increased
calcium responses of soleus muscle to adiponectin (AdipoR1 [1]; muscle-R1KO mice): almost completely disappeared
whole-cell inward current responses (AdipoR1 [4]): observed
B1: adiponectin: recombinant murine full-length adiponectin, internal ligand of adiponectin receptor 1 (protein, UniProt Q60994 1-247, looked up)
chain: MLLLQALLFLLILPSHAEDDVTTTEELAPALVPPPKGTCAGWMAGIPGHPGHNGTPGRDGRDGTPGEKGEKGDAGLLGPKGETGDVGMTGAEGPRGFPGTPGRKGEPGEAAYVYRSAFSVGLETRVTVPNVPIRFTKIFYNQQNHYDGSTGKFYCNIPGLYYFSYHITVYMKDVKVSLFKKDKAVLFTYDQYQEKNVDQASGSVLLHLEVGDQVWLQVYGDGDHNGLYADNVNDSTFTGFLLYHDTN
modifications: full-length
mitochondrial biogenesis (C2C12 myocytes [2]; C2C12 myocytes expressing PGC-1α-R13 mutant): failed to further induce
amount of mitochondria as assessed by MitoTracker green (C2C12 myocytes [2]; [5]): increased
mitochondrial DNA content (C2C12 myocytes [2]; [5]): increased
NAD+ and NADH contents (C2C12 myocytes [3]): increased
NAD+/NADH ratio (C2C12 myocytes [3]): increased
